In patent US10961289B2, “Small molecules blocking histone reader domains” (The University of Copenhagen, priority 2015, dated 2021):
Where no end group is shown, it is not given here.

target: T1, TONSL ARD (amino acid 512-692 of TONSL of SEQ ID NO: 16) (Homo sapiens, UniProt Q96HA7); test: Native MS analysis of protein-peptide complexes; assay type: binding; conditions: 10 μM TONSL-ARD, 50 mM NH4OAc pH 7.5
T1 construct: GST (N, cleaved yes); made in house; host or cells: E. coli BL21(DE3)-RIL
T1 sequence (Q96HA7 512-692): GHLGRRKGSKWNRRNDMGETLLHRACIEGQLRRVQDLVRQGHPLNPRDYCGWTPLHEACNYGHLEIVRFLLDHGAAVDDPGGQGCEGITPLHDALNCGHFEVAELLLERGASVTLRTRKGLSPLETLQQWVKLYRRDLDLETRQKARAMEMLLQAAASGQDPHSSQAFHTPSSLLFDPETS
Description: Various peptides were obtained including the peptides described in Examples 11, 12, 13, 14 and 15. If the peptide was in the form of a trifluoroacetate salt (TFA salt), it was desalted on a polymeric weak cation exchange sorbent (Strata X-CW, Phenomenex, Sartrouville, France): Dry peptide (1-3 μmol) were solubilized in 200 μL pure water (Sigma-Aldrich, Lyon, France). The pH of the solution was adjusted to 7-7.5 by addition of 1 mM aqueous ammonium hydroxide solution (solution freshly prepared from 20% concentrated ammonium hydroxide). The exchange column was conditioned with 1 mL methanol (Sigma-Aldrich, Lyon, France) followed by 1 mL water. The solution was injected and the column was washed twice with 500 μL pure water. Finally the peptide was eluted by gravity with 2 times 500 μL of a 20:80:5 acetonitrile/water/formic acid mixture. The elution fraction containing the expected peptide was identified by mass spectrometry. The TFA-free solution was freeze-dried to get a white solid. The solid was dissolved in 300 μL pure water and the solution was freeze-dried for a second time.
A stock solution of the peptide was prepared by adding 300 μL of pure water to the resulting solid and the concentration of the solution was measured by UV at a wavelength of 205 nm. The extinction coefficient for the corresponding peptide sequence was calculated using the Nick Anthis online protein parameter calculator script (http://nickanthis.com/tools/a205.html). The absence of TFA adducts was confirmed by mass spectrometry with infusion of the protein-peptide mixture at low acceleration voltage (Vc 25 V) in native conditions.
Purified TONSL ARD (i.e. amino acid 512-692 of TONSL of SEQ ID NO: 16) was buffer exchanged against 500 mM NH4OAc pH 7.5 using a NAP 5 column (NAP™-5, GE Healthcare). Bradford protein quantitation was performed on buffer exchanged protein. […]
The mass spectrometry (MS) analysis were carried out on an electrospray time-of-flight mass spectrometer (LCT, Waters, Manchester, UK) equipped with an automated chip-based nanoESI device (Triversa Nanomate, Advion Biosciences, Ithaca, N.Y.). […] Mass spectra were recorded using reduced cone voltage (Vc=50 V) and elevated interface pressure (Pi=5 mbar) which correspond to fine-tuned instrumental settings providing sufficient ion desolvation while preserving the integrity of weak non-covalent complexes in the gas phase. […]
The proportion of 1:1 stoichiometry complex is calculated according to the following equation: […]
To estimate the binding affinities (Kd) of peptides for TONSL-ARD, a mixture of protein/peptide was analyzed at a constant peptide to protein ratio with decreasing protein concentration until the lowest detection limit was reached. […]

Substance | % P1L1 (proportion of 1:1 stoichiometry protein-peptide complex)
AKRHRKVLR-NH2 [Example 12] | 62.6%
KGGAARHRKVLR-NH2 [Example 15] | 81.4%
KGGAKRHAKVLR-NH2 [Example 14] | 73.3%
KGGAKRHRKVLR-NH2 [Example 13] | 89.9%

target: T2, TONSL ARD (Homo sapiens, UniProt Q96HA7); test: ITC of TONSL ARD binding to histone peptides; conditions: ITC (FIG. 13); for H4K20me1/2 also peptide pull-downs
T2 construct: GST (N); made in house; host or cells: E. coli BL21(DE3)-RIL
T2 sequence (Q96HA7 512-692): T1 sequence (Q96HA7 512-692)
Description: All the ITC titrations were performed on a Microcal ITC 200 calorimeter at 25° C. […] The exothermic heat of the reaction was measured by 17 sequential 2.2 μl injections of the peptides (1.41 mM in buffer 20 mM Tris pH 7.5 and 0.5 M NaCl) into 200 μl of the TONSL ARD solution (145 μM in the same buffer), spaced at intervals of 150 s. The data were processed with Microcal Origin software and the curves were fit to a single […] binding model.

Substance | binding to TONSL ARD
H4K20me2: histone H4 (residues 9-25) peptide with di-methylation on Lys20 (GLGKGGAKRHRKVLRDN) [Example H4K20me2] | incompatible with TONSL binding
H18W: histone H4 (residues 9-25) peptide with His18 mutated to Trp18 (GLGKGGAKRWRKVLRDN) [Example H18W] | totally disrupts binding with TONSL ARD
H4 tail (9-25): unmodified histone H4 peptide, residues 9-25 (KGLGKGGAKRHRKVLRD; listed as Homo sapiens) | can bind TONSL ARD
H4K20me1: histone H4 (residues 9-25) peptide with mono-methylation on Lys20 (GLGKGGAKRHRKVLRDN) [Example H4K20me1] | incompatible with TONSL binding

target: T3, TONSL acidic stretch and ARD (450-692) (Homo sapiens, UniProt Q96HA7); test: ITC analysis of TONSL acidic stretch and ARD with histone peptides; assay type: binding; conditions: ITC (FIG. 35)
T3 construct: ITC analysis of TONSL acidic stretch and ARD (aa. 450-692); made in house; host or cells: E. coli BL21(DE3)-RIL
T3 sequence (Q96HA7 450-692): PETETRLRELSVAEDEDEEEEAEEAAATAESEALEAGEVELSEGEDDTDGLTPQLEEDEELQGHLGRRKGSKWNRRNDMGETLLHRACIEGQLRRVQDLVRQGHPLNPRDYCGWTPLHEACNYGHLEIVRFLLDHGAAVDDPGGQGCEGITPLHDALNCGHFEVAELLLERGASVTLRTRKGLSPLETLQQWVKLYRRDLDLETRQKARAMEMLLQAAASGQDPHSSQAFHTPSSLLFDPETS

Substance | binding to TONSL (450-692)
H3K9me1 (1-21): histone H3K9me1 (aa. 1-21) peptide | does not bind
H4 tail (9-25): unmodified histone H4 peptide, residues 9-25 (KGLGKGGAKRHRKVLRD; listed as Homo sapiens) | recognizes
